# Results: patent publication US20260001928A1 (CORTERIA PHARMACEUTICALS, priority 2022, published 2026)
# *1 amine or outer side, *2 acyl side, *3 side chain or, on linkers, in order; H or OH if unused. Where no end group is shown, it is not given here. Side-chain parts run from the residue outwards. [ ]: non-standard residue; d: D form. The star is where a group is joined. C20 diacid = O=C(O)CCCCCCCCCCCCCCCCCCC(=O)*; γGlu = O=C(O)[C@H](CCC(=O)[*:2])N[*:1]; NMeI = CC[C@H](C)[C@H](NC)C(=O)O; Pentanoyl = CCCCC(=O)*; AEEA = NCCOCCOCC(=O)O; Aib = CC(C)(N)C(=O)O
# T1: CRF1R (corticotropin-releasing factor receptor 1), on the CRF1R-overexpression CHO-K1 cell line clone 2 (UniProt P34998 24-415, limits assumed)
# T1 sequence (looked up): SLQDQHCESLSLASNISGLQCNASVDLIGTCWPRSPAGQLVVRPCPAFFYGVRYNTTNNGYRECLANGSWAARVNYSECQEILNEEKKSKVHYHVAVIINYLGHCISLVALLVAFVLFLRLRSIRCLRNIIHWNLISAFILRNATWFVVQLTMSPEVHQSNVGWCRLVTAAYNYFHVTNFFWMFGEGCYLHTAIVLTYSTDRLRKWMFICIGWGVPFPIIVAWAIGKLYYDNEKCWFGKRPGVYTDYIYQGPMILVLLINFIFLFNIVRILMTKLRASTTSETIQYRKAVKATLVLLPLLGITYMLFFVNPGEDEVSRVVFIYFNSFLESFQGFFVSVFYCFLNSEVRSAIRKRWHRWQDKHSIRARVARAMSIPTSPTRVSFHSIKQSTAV
# B1: peptide of SEQ ID NO: 233 (peptide)
# peptide: [NMeI]VLSLD[dV]PIKLK([AEEA-γGlu-C20 diacid])KILLEQEKQKEQREQAETN[Aib]QILAQV-NH2
# modifications: N-terminus assumed
# SMILES: CC[C@H](C)[C@H](NC)C(=O)N[C@H](C(=O)N[C@@H](CC(C)C)C(=O)N[C@@H](CO)C(=O)N[C@@H](CC(C)C)C(=O)N[C@@H](CC(=O)O)C(=O)N[C@@H](C(=O)N1CCC[C@H]1C(=O)N[C@H](C(=O)N[C@@H](CCCCN)C(=O)N[C@@H](CC(C)C)C(=O)N[C@@H](CCCCNC(=O)COCCOCCNC(=O)CC[C@H](NC(=O)CCCCCCCCCCCCCCCCCCC(=O)O)C(=O)O)C(=O)N[C@@H](CCCCN)C(=O)N[C@H](C(=O)N[C@@H](CC(C)C)C(=O)N[C@@H](CC(C)C)C(=O)N[C@@H](CCC(=O)O)C(=O)N[C@@H](CCC(N)=O)C(=O)N[C@@H](CCC(=O)O)C(=O)N[C@@H](CCCCN)C(=O)N[C@@H](CCC(N)=O)C(=O)N[C@@H](CCCCN)C(=O)N[C@@H](CCC(=O)O)C(=O)N[C@@H](CCC(N)=O)C(=O)N[C@@H](CCCNC(=N)N)C(=O)N[C@@H](CCC(=O)O)C(=O)N[C@@H](CCC(N)=O)C(=O)N[C@@H](C)C(=O)N[C@@H](CCC(=O)O)C(=O)N[C@H](C(=O)N[C@@H](CC(N)=O)C(=O)NC(C)(C)C(=O)N[C@@H](CCC(N)=O)C(=O)N[C@H](C(=O)N[C@@H](CC(C)C)C(=O)N[C@@H](C)C(=O)N[C@@H](CCC(N)=O)C(=O)N[C@H](C(N)=O)C(C)C)[C@@H](C)CC)[C@@H](C)O)[C@@H](C)CC)[C@@H](C)CC)C(C)C)C(C)C
# B2: peptide of SEQ ID NO: 237 (peptide)
# peptide: [NMeI]VLSLD[dV]PIKLK([AEEA-AEEA-γGlu-C20 diacid])KILLEQEKQKEQREQAETN[Aib]QILAQV-NH2
# modifications: N-terminus assumed
# SMILES: CC[C@H](C)[C@H](NC)C(=O)N[C@H](C(=O)N[C@@H](CC(C)C)C(=O)N[C@@H](CO)C(=O)N[C@@H](CC(C)C)C(=O)N[C@@H](CC(=O)O)C(=O)N[C@@H](C(=O)N1CCC[C@H]1C(=O)N[C@H](C(=O)N[C@@H](CCCCN)C(=O)N[C@@H](CC(C)C)C(=O)N[C@@H](CCCCNC(=O)COCCOCCNC(=O)COCCOCCNC(=O)CC[C@H](NC(=O)CCCCCCCCCCCCCCCCCCC(=O)O)C(=O)O)C(=O)N[C@@H](CCCCN)C(=O)N[C@H](C(=O)N[C@@H](CC(C)C)C(=O)N[C@@H](CC(C)C)C(=O)N[C@@H](CCC(=O)O)C(=O)N[C@@H](CCC(N)=O)C(=O)N[C@@H](CCC(=O)O)C(=O)N[C@@H](CCCCN)C(=O)N[C@@H](CCC(N)=O)C(=O)N[C@@H](CCCCN)C(=O)N[C@@H](CCC(=O)O)C(=O)N[C@@H](CCC(N)=O)C(=O)N[C@@H](CCCNC(=N)N)C(=O)N[C@@H](CCC(=O)O)C(=O)N[C@@H](CCC(N)=O)C(=O)N[C@@H](C)C(=O)N[C@@H](CCC(=O)O)C(=O)N[C@H](C(=O)N[C@@H](CC(N)=O)C(=O)NC(C)(C)C(=O)N[C@@H](CCC(N)=O)C(=O)N[C@H](C(=O)N[C@@H](CC(C)C)C(=O)N[C@@H](C)C(=O)N[C@@H](CCC(N)=O)C(=O)N[C@H](C(N)=O)C(C)C)[C@@H](C)CC)[C@@H](C)O)[C@@H](C)CC)[C@@H](C)CC)C(C)C)C(C)C
# B3: peptide of SEQ ID NO: 236 (peptide)
# peptide: Ac-IVLSLD[dV]PIKLK([AEEA-AEEA-γGlu-C20 diacid])KILLEQEKQKEQREQAETN[Aib]QILAQV-NH2
# SMILES: CC[C@H](C)[C@H](NC(C)=O)C(=O)N[C@H](C(=O)N[C@@H](CC(C)C)C(=O)N[C@@H](CO)C(=O)N[C@@H](CC(C)C)C(=O)N[C@@H](CC(=O)O)C(=O)N[C@@H](C(=O)N1CCC[C@H]1C(=O)N[C@H](C(=O)N[C@@H](CCCCN)C(=O)N[C@@H](CC(C)C)C(=O)N[C@@H](CCCCNC(=O)COCCOCCNC(=O)COCCOCCNC(=O)CC[C@H](NC(=O)CCCCCCCCCCCCCCCCCCC(=O)O)C(=O)O)C(=O)N[C@@H](CCCCN)C(=O)N[C@H](C(=O)N[C@@H](CC(C)C)C(=O)N[C@@H](CC(C)C)C(=O)N[C@@H](CCC(=O)O)C(=O)N[C@@H](CCC(N)=O)C(=O)N[C@@H](CCC(=O)O)C(=O)N[C@@H](CCCCN)C(=O)N[C@@H](CCC(N)=O)C(=O)N[C@@H](CCCCN)C(=O)N[C@@H](CCC(=O)O)C(=O)N[C@@H](CCC(N)=O)C(=O)N[C@@H](CCCNC(=N)N)C(=O)N[C@@H](CCC(=O)O)C(=O)N[C@@H](CCC(N)=O)C(=O)N[C@@H](C)C(=O)N[C@@H](CCC(=O)O)C(=O)N[C@H](C(=O)N[C@@H](CC(N)=O)C(=O)NC(C)(C)C(=O)N[C@@H](CCC(N)=O)C(=O)N[C@H](C(=O)N[C@@H](CC(C)C)C(=O)N[C@@H](C)C(=O)N[C@@H](CCC(N)=O)C(=O)N[C@H](C(N)=O)C(C)C)[C@@H](C)CC)[C@@H](C)O)[C@@H](C)CC)[C@@H](C)CC)C(C)C)C(C)C
# B4: peptide of SEQ ID NO: 234 (peptide)
# peptide: [NMeI]VLSLD[dV]PIKLK([AEEA-γGlu-C20 diacid])KILLEQEKQK[Aib]QREQAETN[Aib]QILAQV-NH2
# modifications: N-terminus assumed
# SMILES: CC[C@H](C)[C@H](NC)C(=O)N[C@H](C(=O)N[C@@H](CC(C)C)C(=O)N[C@@H](CO)C(=O)N[C@@H](CC(C)C)C(=O)N[C@@H](CC(=O)O)C(=O)N[C@@H](C(=O)N1CCC[C@H]1C(=O)N[C@H](C(=O)N[C@@H](CCCCN)C(=O)N[C@@H](CC(C)C)C(=O)N[C@@H](CCCCNC(=O)COCCOCCNC(=O)CC[C@H](NC(=O)CCCCCCCCCCCCCCCCCCC(=O)O)C(=O)O)C(=O)N[C@@H](CCCCN)C(=O)N[C@H](C(=O)N[C@@H](CC(C)C)C(=O)N[C@@H](CC(C)C)C(=O)N[C@@H](CCC(=O)O)C(=O)N[C@@H](CCC(N)=O)C(=O)N[C@@H](CCC(=O)O)C(=O)N[C@@H](CCCCN)C(=O)N[C@@H](CCC(N)=O)C(=O)N[C@@H](CCCCN)C(=O)NC(C)(C)C(=O)N[C@@H](CCC(N)=O)C(=O)N[C@@H](CCCNC(=N)N)C(=O)N[C@@H](CCC(=O)O)C(=O)N[C@@H](CCC(N)=O)C(=O)N[C@@H](C)C(=O)N[C@@H](CCC(=O)O)C(=O)N[C@H](C(=O)N[C@@H](CC(N)=O)C(=O)NC(C)(C)C(=O)N[C@@H](CCC(N)=O)C(=O)N[C@H](C(=O)N[C@@H](CC(C)C)C(=O)N[C@@H](C)C(=O)N[C@@H](CCC(N)=O)C(=O)N[C@H](C(N)=O)C(C)C)[C@@H](C)CC)[C@@H](C)O)[C@@H](C)CC)[C@@H](C)CC)C(C)C)C(C)C
# B5: peptide of SEQ ID NO: 235 (peptide)
# peptide: Pentanoyl-VLSLD[dV]PIKLK([AEEA-γGlu-C20 diacid])KILLEQEKQKKQREQAETN[Aib]QILAQV-NH2
# SMILES: CCCCC(=O)N[C@H](C(=O)N[C@@H](CC(C)C)C(=O)N[C@@H](CO)C(=O)N[C@@H](CC(C)C)C(=O)N[C@@H](CC(=O)O)C(=O)N[C@@H](C(=O)N1CCC[C@H]1C(=O)N[C@H](C(=O)N[C@@H](CCCCN)C(=O)N[C@@H](CC(C)C)C(=O)N[C@@H](CCCCNC(=O)COCCOCCNC(=O)CC[C@H](NC(=O)CCCCCCCCCCCCCCCCCCC(=O)O)C(=O)O)C(=O)N[C@@H](CCCCN)C(=O)N[C@H](C(=O)N[C@@H](CC(C)C)C(=O)N[C@@H](CC(C)C)C(=O)N[C@@H](CCC(=O)O)C(=O)N[C@@H](CCC(N)=O)C(=O)N[C@@H](CCC(=O)O)C(=O)N[C@@H](CCCCN)C(=O)N[C@@H](CCC(N)=O)C(=O)N[C@@H](CCCCN)C(=O)N[C@@H](CCCCN)C(=O)N[C@@H](CCC(N)=O)C(=O)N[C@@H](CCCNC(=N)N)C(=O)N[C@@H](CCC(=O)O)C(=O)N[C@@H](CCC(N)=O)C(=O)N[C@@H](C)C(=O)N[C@@H](CCC(=O)O)C(=O)N[C@H](C(=O)N[C@@H](CC(N)=O)C(=O)NC(C)(C)C(=O)N[C@@H](CCC(N)=O)C(=O)N[C@H](C(=O)N[C@@H](CC(C)C)C(=O)N[C@@H](C)C(=O)N[C@@H](CCC(N)=O)C(=O)N[C@H](C(N)=O)C(C)C)[C@@H](C)CC)[C@@H](C)O)[C@@H](C)CC)[C@@H](C)CC)C(C)C)C(C)C
# Biological target: Rat CRF2 a (corticotropin-releasing factor receptor 2), on the A7R5 rat aortic smooth muscle cell line (rat, UniProt P47866 20-411)
# Test: cell-based or functional assay
# Sequence of Rat CRF2 a (corticotropin-releasing factor receptor 2), on the A7R5 rat aortic smooth muscle cell line (P47866 20-411): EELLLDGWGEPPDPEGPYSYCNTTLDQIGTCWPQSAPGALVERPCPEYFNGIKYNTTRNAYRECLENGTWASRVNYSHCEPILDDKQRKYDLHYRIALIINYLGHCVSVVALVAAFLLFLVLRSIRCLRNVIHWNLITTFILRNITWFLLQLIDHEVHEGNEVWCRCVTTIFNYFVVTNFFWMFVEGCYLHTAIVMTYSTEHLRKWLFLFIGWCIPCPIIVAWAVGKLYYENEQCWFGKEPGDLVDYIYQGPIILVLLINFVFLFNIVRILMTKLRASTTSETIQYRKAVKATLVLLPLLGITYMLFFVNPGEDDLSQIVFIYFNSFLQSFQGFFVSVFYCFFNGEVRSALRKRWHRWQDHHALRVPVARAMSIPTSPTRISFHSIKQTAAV
row,"EC50 [nM] 0% HSA (cAMP, A7R5 rat aortic smooth muscle cells) [nM]",Binder
1,0.37,B1
2,0.63,B2
3,2.81,B3
4,0.05,B4
5,0.17,B5

# Biological target: T1, CRF1R (corticotropin-releasing factor …)
# Test: cell-based or functional assay
"EC50 [nM] (cAMP, CRF1R-overexpression CHO-K1 cells)","Emax (% I) (cAMP, 100% = Sauvagine at 100 nM)",Binder
> 250,8,B1
> 250,6,B2
> 250,7,B3
> 250,15,B4
> 250,27,B5
